System: Escherichia coli TOP10
Experiment: shrunken log2 fold change of peptide-encoding DNA abundance (4.5 h post-induction vs induction); higher = less antimicrobial activity (less host growth inhibition)
Details: time post-induction: 4.5 h; library: site-saturation at positions 5, 18, 19, 20
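Further: peptides expressed intracellularly from a pBAD plasmid library in pooled LB shake-flask culture, induced with 0.3% L-arabinose, DNA abundance read by NGS, three biological replicates, DESeq2 with apeglm shrinkage.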

RRIRERPPRLPRPRPRPEFHPRP and RRIRDRPPRLPRPRPRPQFRPRP are within 0.2 log units of each other in “shrunken log2 fold change” value: -0.207 for the first, -0.296 for the second.

RRIRVRPPRLPRPRPRPQIAPRP and RRIRKRPPRLPRPRPRPADLPRP are within 0.2 log units of each other in “shrunken log2 fold change” value: -0.0465 for the first, 0.056 for the second.

Compared with RRIRYRPPRLPRPRPRPRIVPRP, RRIRRRPPRLPRPRPRPWVFPRP is higher in “shrunken log2 fold change” value: -0.369 for the first, -0.106 for the second.

Compared with RRIRDRPPRLPRPRPRPFNNPRP, RRIRIRPPRLPRPRPRPNCFPRP is higher in “shrunken log2 fold change” value: -0.226 for the first, 0.00306 for the second.

Compared with RRIRCRPPRLPRPRPRPLWYPRP, RRIRHRPPRLPRPRPRPAGQPRP is higher in “shrunken log2 fold change” value: -0.307 for the first, -0.00146 for the second.

RRIRWRPPRLPRPRPRPMWLPRP and RRIRVRPPRLPRPRPRPDQRPRP are within 0.2 log units of each other in “shrunken log2 fold change” value: 0.244 for the first, 0.128 for the second.

RRIRHRPPRLPRPRPRPHYVPRP and RRIRARPPRLPRPRPRPINYPRP are within 0.2 log units of each other in “shrunken log2 fold change” value: -0.057 for the first, -0.239 for the second.

Going from RRIRGRPPRLPRPRPRPGANPRP to RRIRMRPPRLPRPRPRPNSPPRP, the “shrunken log2 fold change” value falls from 0.874 to 0.147.

First: RRIRIRPPRLPRPRPRPALRPRP
Second: RRIRYRPPRLPRPRPRPPPWPRP
The “shrunken log2 fold change” value of the first is lower: 0.00782 for the first, 0.358 for the second.

RRIRDRPPRLPRPRPRPRGQPRP and RRIRARPPRLPRPRPRPKFKPRP are within 0.2 log units of each other in “shrunken log2 fold change” value: 0.141 for the first, -0.0259 for the second.

First: RRIRIRPPRLPRPRPRPWGLPRP
Second: RRIRNRPPRLPRPRPRPRASPRP
The “shrunken log2 fold change” value of the first is lower: -0.192 for the first, 0.211 for the second.

RRIRDRPPRLPRPRPRPIQMPRP and RRIRVRPPRLPRPRPRPRMWPRP are within 0.2 log units of each other in “shrunken log2 fold change” value: 0.137 for the first, 0.271 for the second.

Going from RRIRDRPPRLPRPRPRPCDQPRP to RRIRQRPPRLPRPRPRPFRTPRP, the “shrunken log2 fold change” value falls from 0.0112 to -0.255.

Going from RRIRKRPPRLPRPRPRPGINPRP to RRIRNRPPRLPRPRPRPEWAPRP, the “shrunken log2 fold change” value falls from 0.369 to 0.0317.

Going from RRIRQRPPRLPRPRPRPYVTPRP to RRIRWRPPRLPRPRPRPQWHPRP, the “shrunken log2 fold change” value rises from -0.253 to 0.0415.

Compared with RRIRARPPRLPRPRPRPTAIPRP, RRIRLRPPRLPRPRPRPRIEPRP is lower in “shrunken log2 fold change” value: 0.977 for the first, -0.0339 for the second.

Going from RRIRTRPPRLPRPRPRPNCAPRP to RRIRARPPRLPRPRPRPWKSPRP, the “shrunken log2 fold change” value rises from -0.254 to -0.00111.

First: RRIRMRPPRLPRPRPRPKQTPRP
Second: RRIRCRPPRLPRPRPRPDQYPRP
The “shrunken log2 fold change” value of the first is higher: 3.33 for the first, -0.277 for the second.

Compared with RRIRKRPPRLPRPRPRPIDRPRP, RRIRYRPPRLPRPRPRPHQNPRP is lower in “shrunken log2 fold change” value: -0.0769 for the first, -0.527 for the second.

Going from RRIRKRPPRLPRPRPRPADEPRP to RRIRFRPPRLPRPRPRPDTVPRP, the “shrunken log2 fold change” value falls from 0.19 to -0.0794.

Compared with RRIRGRPPRLPRPRPRPHTGPRP, RRIRFRPPRLPRPRPRPRPIPRP is higher in “shrunken log2 fold change” value: -0.0945 for the first, 0.341 for the second.

Compared with RRIRYRPPRLPRPRPRPAALPRP, RRIRPRPPRLPRPRPRPKAHPRP is higher in “shrunken log2 fold change” value: -0.478 for the first, 0.0759 for the second.

Going from RRIRMRPPRLPRPRPRPAFWPRP to RRIRSRPPRLPRPRPRPLYHPRP, the “shrunken log2 fold change” value falls from 0.963 to -0.599.

Going from RRIRQRPPRLPRPRPRPLHAPRP to RRIRQRPPRLPRPRPRPDFKPRP, the “shrunken log2 fold change” value falls from 0.164 to -0.229.

RRIRPRPPRLPRPRPRPRGYPRP and RRIRYRPPRLPRPRPRPARGPRP are within 0.2 log units of each other in “shrunken log2 fold change” value: 0.523 for the first, 0.515 for the second.

Compared with RRIRLRPPRLPRPRPRPTHYPRP, RRIRNRPPRLPRPRPRPCCTPRP is higher in “shrunken log2 fold change” value: -0.18 for the first, 2.47 for the second.

RRIRMRPPRLPRPRPRPVMVPRP and RRIRERPPRLPRPRPRPGYSPRP are within 0.2 log units of each other in “shrunken log2 fold change” value: 0.0724 for the first, -0.00468 for the second.

RRIRCRPPRLPRPRPRPQTEPRP and RRIRARPPRLPRPRPRPDHIPRP are within 0.2 log units of each other in “shrunken log2 fold change” value: 0.0248 for the first, -0.126 for the second.

First: RRIRLRPPRLPRPRPRPCTEPRP
Second: RRIRTRPPRLPRPRPRPPNKPRP
The “shrunken log2 fold change” value of the first is higher: -0.0105 for the first, -0.275 for the second.

First: RRIRFRPPRLPRPRPRPYFEPRP
Second: RRIRGRPPRLPRPRPRPYIQPRP
The “shrunken log2 fold change” value of the first is lower: -0.617 for the first, -0.411 for the second.

Going from RRIRGRPPRLPRPRPRPGNVPRP to RRIRGRPPRLPRPRPRPGLFPRP, the “shrunken log2 fold change” value rises from 0.22 to 1.01.

RRIRERPPRLPRPRPRPWDEPRP and RRIRDRPPRLPRPRPRPSCIPRP are within 0.2 log units of each other in “shrunken log2 fold change” value: 0.0271 for the first, 0.0916 for the second.

RRIRERPPRLPRPRPRPMWFPRP and RRIRQRPPRLPRPRPRPPKHPRP are within 0.2 log units of each other in “shrunken log2 fold change” value: -0.159 for the first, -0.142 for the second.

Compared with RRIRTRPPRLPRPRPRPFLLPRP, RRIRIRPPRLPRPRPRPAMPPRP is higher in “shrunken log2 fold change” value: -0.743 for the first, 0.0692 for the second.

First: RRIRCRPPRLPRPRPRPVPPPRP
Second: RRIRYRPPRLPRPRPRPRRPPRP
The “shrunken log2 fold change” value of the first is higher: 0.474 for the first, -0.0739 for the second.

Compared with RRIRHRPPRLPRPRPRPCRCPRP, RRIRCRPPRLPRPRPRPVESPRP is higher in “shrunken log2 fold change” value: -0.271 for the first, -0.0217 for the second.

RRIRARPPRLPRPRPRPVPRPRP and RRIRARPPRLPRPRPRPAVSPRP are within 0.2 log units of each other in “shrunken log2 fold change” value: 0.536 for the first, 0.431 for the second.

With RRIRIRPPRLPRPRPRPQSVPRP the “shrunken log2 fold change” value was -0.295.

From the supplement of paper PMC9112550, “Optimization of the antimicrobial peptide Bac7 by deep mutational scanning” (BMC Biology, 2022)
